Series [1] addresses REV7 (Homo sapiens) (UniProt Q9UI95). To be noted: cited from earlier work.
Series [2] addresses T1, SHLD3;SHLD2 1-95;REV7 R124A (human;human;human, UniProt Q6ZNX1;Q86V20-2;Q9UI95 1-250;1-95;1-211, ||R124A). The series can be described thus: fluorescence anisotropy; 20 mM Na-HEPES pH 7.5, 5% glycerol, 100 mM NaCl, 0.5 mM TCEP; 10 nM DNA, 30 min, room temperature. The conditions noted are these: protein: recombinant;recombinant;recombinant, tags: tags cleaved (PreScission);GST tag, cleaved (PreScission);tags cleaved (PreScission), copies: 1;1;2. A general note: In fluorescence polarisation assays a small probe gives low polarisation when free and higher when bound to something large.
Target sequence in this assay (Q6ZNX1 whole entry, chain 1 of 3): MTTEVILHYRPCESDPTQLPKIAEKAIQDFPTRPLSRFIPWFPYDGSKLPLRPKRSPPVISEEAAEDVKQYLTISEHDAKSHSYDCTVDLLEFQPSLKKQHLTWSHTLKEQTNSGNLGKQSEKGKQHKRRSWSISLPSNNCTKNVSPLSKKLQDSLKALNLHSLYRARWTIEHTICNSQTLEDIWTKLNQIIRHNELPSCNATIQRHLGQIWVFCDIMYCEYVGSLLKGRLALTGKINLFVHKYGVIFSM
Target sequence in this assay (Q86V20 1-95, chain 2 of 3): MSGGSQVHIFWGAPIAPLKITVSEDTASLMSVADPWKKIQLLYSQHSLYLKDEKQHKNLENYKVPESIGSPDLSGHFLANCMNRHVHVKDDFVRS
Target sequence in this assay (Q9UI95 whole entry R124A, chain 3 of 3): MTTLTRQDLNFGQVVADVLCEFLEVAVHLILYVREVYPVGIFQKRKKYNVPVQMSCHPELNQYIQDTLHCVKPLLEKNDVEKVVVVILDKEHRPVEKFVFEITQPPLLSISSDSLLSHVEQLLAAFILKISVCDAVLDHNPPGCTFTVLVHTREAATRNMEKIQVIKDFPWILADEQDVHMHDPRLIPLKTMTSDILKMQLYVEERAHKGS

Series [3] addresses T2, SHLD3 CTD (human, UniProt Q6ZNX1 140-250).
T2 sequence: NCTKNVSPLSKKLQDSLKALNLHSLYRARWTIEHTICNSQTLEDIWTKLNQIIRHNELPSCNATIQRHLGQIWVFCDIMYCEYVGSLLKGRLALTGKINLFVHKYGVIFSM
The experiment in a line: fluorescence anisotropy; Kd similar to the Shieldin complex; 20 mM Na-HEPES pH 7.5, 5% glycerol, 100 mM NaCl, 0.5 mM TCEP; 10 nM DNA, 30 min, room temperature. To be noted: protein: recombinant, tags: MBP or GST tag, cleaved (PreScission).

Series [4] has as its target T1, SHLD3;SHLD2 1-95;REV7 R124A. The experiment in a line: analytical size-exclusion chromatography co-migration; excess DNA; 20 mM Na-HEPES pH 7.5, 5% glycerol, 100 mM NaCl, 0.5 mM TCEP; 10 nM DNA, 30 min, room temperature. The conditions noted are these: protein: recombinant;recombinant;recombinant, tags: tags cleaved (PreScission);GST tag, copies: 1;1;2, label: 5(6)-FAM. In general terms: In gel filtration, larger molecules generally elute earlier.
Target sequence in this assay (Q9UI95 whole entry R124A, one chain of several): as the sequence (Q9UI95 whole entry R124A, chain 3 of 3) above

The target of series [5] is T3, REV7^WT (human, UniProt Q9UI95 1-211).
T3 construct: REV7 (MAD2L2), human; The methods say in general that the MBP or GST tag was cleaved with PreScission protease; here the protein is labelled without a tag; also called MAD2L2; wild-type REV7; source: E. coli LOBSTR, purified (metal chelating column, tag cleavage, SEC); not shown: hexahistidine-MBP or GST, N-terminal, cleaved
T3 sequence (Q9UI95 whole entry): as the sequence (Q9UI95 whole entry R124A, chain 3 of 3) above, with A124R counted along it
The experiment in a line: SPR; SHLD3^1–62 or REV3^1871–2014 immobilised on SCR HC30M chip by EDC-NHS; REV7 injected in two-fold dilutions; buffer B with 0.05% Tween 20. To be noted: both partners purified. For orientation: SPR reads the build-up and loss of mass on a sensor chip optically.

Series [6] concerns the target REV7^R124A (human, UniProt Q9UI95 1-211, R124A). The series can be described thus: SPR.
Series [7] addresses T4, REV7^R124A (human, UniProt Q9UI95 1-211, R124A).
T4 construct: REV7 (MAD2L2), human; also called dimerization mutant; source: E. coli LOBSTR, purified (metal chelating column, tag cleavage, SEC); not shown: hexahistidine-MBP or GST, N-terminal, cleaved
The experiment in a line: SPR; SHLD3^1–62 or REV3^1871–2014 immobilised on SCR HC30M chip by EDC-NHS; REV7 injected in two-fold dilutions; buffer B with 0.05% Tween 20. To be noted: both partners purified.
T4 sequence (Q9UI95 whole entry R124A): as the sequence (Q9UI95 whole entry R124A, chain 3 of 3) above

The target in series [8] is T5, preformed REV7^ΔN-SHLD3 (human, UniProt Q9UI95 15-211; Q6ZNX1 1-62).
T5 construct: REV7 (MAD2L2), human, without the N-terminal 14 residues; as m8; SHLD3, human, residues 1-62; as m16; source: E. coli LOBSTR, purified components, complex formed beforehand; not shown: hexahistidine-MBP or GST, N-terminal, cleaved; GST, N-terminal, kept
T5 sequence (Q9UI95 15-211, stated change not applied, one chain of several): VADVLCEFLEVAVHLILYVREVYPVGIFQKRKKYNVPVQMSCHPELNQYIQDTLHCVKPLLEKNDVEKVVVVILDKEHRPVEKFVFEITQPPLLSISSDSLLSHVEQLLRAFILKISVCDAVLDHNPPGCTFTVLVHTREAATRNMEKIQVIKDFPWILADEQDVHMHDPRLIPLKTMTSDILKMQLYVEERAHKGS
The experiment in a line: SEC; 5 µM preformed REV7^ΔN-SHLD3 with 10 µM MBP-SHLD2^1–60 and MBP-REV7^core, 30 min on ice, Superdex-200 3.2/300 in buffer B. To be noted: both partners purified.

The target of series [9] is T6, pre-formed GST-SHLD3^1–62-REV7 (human, UniProt Q6ZNX1 1-62; Q9UI95 1-211).
T6 construct: SHLD3, human, residues 1-62; as m16; REV7 (MAD2L2), human; as m1; also called GST-SHLD3^1–63-REV7 (methods); pre-formed REV7-SHLD3; source: E. coli LOBSTR, purified components, complex formed beforehand in the absence of SHLD2; not shown: GST, N-terminal, kept; hexahistidine-MBP or GST, N-terminal, cleaved
T6 sequence (Q9UI95 whole entry, the tested form may be a part, one chain of several): as the sequence (Q9UI95 whole entry R124A, chain 3 of 3) above, with A124R counted along it
The series can be described thus: pull-down; MBP-SHLD2^1–60 as bait, five-minute incubation at 4 °C with REV7 and GST-SHLD3^1–62 or with pre-formed GST-SHLD3^1–62-REV7 and additional REV7. To be noted: both partners purified.

The target of series [10] is SHLD3 1-83;SHLD2 1-60;REV7 (human;human;human, UniProt Q6ZNX1;Q86V20-2;Q9UI95 1-83;1-60;1-211, del84-250||). The experiment in a line: fluorescence anisotropy; 20 mM Na-HEPES pH 7.5, 5% glycerol, 100 mM NaCl, 0.5 mM TCEP; 10 nM DNA, 30 min, room temperature. To be noted: protein: recombinant;recombinant;recombinant; tags: ;;; copies: 1;1;2; label: 5(6)-FAM.
Chain of SHLD3 1-83;SHLD2 1-60;REV7 (Q9UI95 whole entry, stated change not applied, one chain of several): as the sequence (Q9UI95 whole entry R124A, chain 3 of 3) above, with A124R counted along it
The mark [11] stands for this setting: label: 5(6)-FAM on strand 1, blunt.

The text below walks through data of article PMC10082759, “Shieldin complex assembly kinetics and DNA binding by SHLD3” (Communications Biology, 2022).

What is called Kd is the free concentration of one partner at which half of the binding sites on the other are occupied at equilibrium, for simple one-to-one binding. As for REV7 (from UniProt Q9UI95), the Kd in [1] was 2000 nM.

B1: non-telomeric dsDNA (dsDNA)
DNA 1: AGTGCCAGTGCC
DNA 2: GGCACTGGCACT
As for B1, in series [2] (setting [11]), the Kd was 166 nM. Besides, the binding result in series [3] (setting [11]) was “binds”.
For the molecule AAGGGGAGCGGGGGAGGATAATAGGAAGGGGAGCGGGGGAGGATAATAGG (ssDNA) [50 nt ssDNA], the binding result in series [4] is given as “binds”.

B2: REV3^1871–2014 (domain or fragment, human, UniProt O60673 1871-2014, looked up)
chain: TPRTANILKPLMSPPSREEIMATLLDHDLSETIYQEPFCSNPSDVPEKPREIGGRLLMVETRLANDLAEFEGDFSLEGLRLWKTAFSAMTQNPRPGSPLRSGQGVVNKGSSNSPKMVEDKKIVIMPCKCAPSRQLVQVWLQAKE
notes: REV3, human, residues 1871-2014 (holds RBM1 1875-1896 and RBM2 1991-2012); Named without a tag; the methods say in general that tags were cleaved; source: E. coli LOBSTR, purified; not shown: hexahistidine-MBP or GST, N-terminal, cleaved
Turning to B2, in [5], the binding result was “binds”.

B3: SHLD3^1–62 (domain or fragment, human, UniProt Q6ZNX1 1-62, looked up)
chain: MTTEVILHYRPCESDPTQLPKIAEKAIQDFPTRPLSRFIPWFPYDGSKLPLRPKRSPPVISE
notes: the methods say in general that tags were cleaved; also called SHLD3^RBM; source: E. coli LOBSTR, purified; not shown: hexahistidine-MBP or GST, N-terminal, cleaved
As to B3, the results for the Kd in [6] and in series [5] were approximately 67 nM and approximately 50 nM, respectively. Besides, in series [7], the binding result is given as “binds”.

B4: dsTelo (dsDNA)
DNA 1: TTAGGGTTAGGG
DNA 2: CCCTAACCCTAA
On to B4, for which, in series [2] (setting [11]), the Kd is 180 nM. The binding result in [3] (setting [11]) was “binds”.

B5: MBP-SHLD2^1–60 (domain or fragment, human, UniProt Q86V20-2 1-60, looked up)
chain: MSGGSQVHIFWGAPIAPLKITVSEDTASLMSVADPWKKIQLLYSQHSLYLKDEKQHKNLE
notes: SHLD2, human, N-terminal residues 1-60; source: E. coli LOBSTR, purified; not shown: hexahistidine-MBP, N-terminal, kept
As to B5, the binding result in series [8] and in series [9] was “binds” throughout.
With AGTGCCAGTGCC (ssDNA) [non-telomeric ssDNA], the Kd in series [2] (label: 5(6)-FAM) was 137 nM. Also, the results for the binding result in series [10] and in [3] (label: 5(6)-FAM) were “no binding” and “binds”, respectively.
Turning to TTAGGGTTAGGG (ssDNA) [telomeric ssDNA], the Kd in [2] (label: 5(6)-FAM) is 207 nM. In addition, the binding result in series [3] (label: 5(6)-FAM) is “binds”.
